As usually defined, the Kd is the free concentration of one partner at which half of the binding sites on the other are occupied at equilibrium, for simple one-to-one binding.

The text below walks through data of paper PMC10904049.

The target in one assay is CaVβ4 (UniProt D4A055). Put plainly: ITC. The following applies: cited from earlier work.
Assay [1] deals with Cerulean-tagged CaVβ2B subunit (Cerulean-WT β2B). Put plainly: flow cytometric FRET assay. The conditions noted are these: HEK293 cells, read off a plot.
The mark [2] stands for this setting: FSK (10 µM) + Cal (100 nM), parent: est. 100.
The mark [3] stands for this setting: no FSK, no Cal, parent: est. 7.8.

Rem2 (from UniProt Q9WTY2): the dissociation constant Kd with CaVβ4 is 156 µM. With “Venus-Rad-CAAX (WT Rad with a C-terminal CAAX motif) (from UniProt O88667) F280A; F294A”, the dissociation constant Kd in assay [1] (+ FSK + Cal) is 21 ×10^3; in assay [1] (no FSK + Cal), 13 ×10^3. With “Venus-Rad-CAAX (WT Rad with a C-terminal CAAX motif) (from UniProt O88667) R208A; L235A”, in assay [1], the dissociation constant Kd was 140 ×10^3. For “Venus-Rad-CAAX (WT Rad with a C-terminal CAAX motif) (from UniProt O88667) S256D; S272D; S289D; S298D; S300D; S305D”, the Kd in assay [1] (no FSK/Cal, parent: est. 9.3) was 12 ×10^3. On the same count and under the same terms, for “Venus-Rad-CAAX (WT Rad with a C-terminal CAAX motif) (from UniProt O88667) S272D; S289D; S298D; S300D” the value was 11 ×10^3. Same read-out and setting: for “Venus-Rad-CAAX (WT Rad with a C-terminal CAAX motif) (from UniProt O88667) S272D; S300D” the value was 12 ×10^3. Regarding “Venus-tagged WT Rad (from UniProt O88667) F280A; F294A”, the Kd in assay [1] (+ FSK + Cal, parent: est. 100) is 190 ×10^3; in assay [1] (no FSK + Cal, parent: est. 8) it was 41 ×10^3. In the case of “Venus-tagged WT Rad (from UniProt O88667) R208A; L235A”, the Kd in assay [1] (parent: est. 8) is 140 ×10^3. For “Venus-tagged WT Rad (from UniProt O88667) S25A; S38A”, the values for the Kd in assay [1] (setting [2]) and in assay [1] (setting [3]) were 44 ×10^3 and 7.5 ×10^3, respectively. For “Venus-tagged WT Rad (from UniProt O88667) S25A; S38A; S272A; S300A”, the Kd was 14 ×10^3 in assay [1] (Cal (100 nM), no FSK); 13 ×10^3 in assay [1] (setting [2]); 11 ×10^3 in assay [1] (FSK (10 µM), no Cal); 11 ×10^3 in assay [1] (setting [3]). On to “Venus-tagged WT Rad (from UniProt O88667) S25D; S38D”, for which the dissociation constant Kd in assay [1] (no FSK/Cal, parent: est. 7.8) was 9.2 ×10^3. On the same count and under the same terms, for “Venus-tagged WT Rad (from UniProt O88667) S25D; S38D; S272D; S300D” the value was 18 ×10^3; for “Venus-tagged WT Rad (from UniProt O88667) S25D; T26D; S38D; M39D”, 5.7 ×10^3; for “Venus-tagged WT Rad (from UniProt O88667) S256D; S272D; S289D; S298D; S300D; S305D”, 83 ×10^3. As to “Venus-tagged WT Rad (from UniProt O88667) S272A; S300A”, the equilibrium dissociation constant (Kd) in assay [1] (setting [2]) was 17 ×10^3; in assay [1] (setting [3]), 6.3 ×10^3.

In the case of “Venus-tagged WT Rad (from UniProt O88667) S272D; S289D; S298D; S300D”, the Kd in assay [1] (no FSK/Cal, parent: est. 7.8) is 57 ×10^3.

Take “Venus-tagged WT Rad (from UniProt O88667) S272D; S300D”: the Kd in assay [1] (no FSK/Cal, parent: est. 7.8) was 18 ×10^3.
